Substrate in data set [1]: NC(=O)C1=CN([C@@H]2O[C@H](COP(=O)(O)OP(=O)(O)OC[C@H]3O[C@@H](n4cnc5c(N)ncnc54)[C@H](O)[C@@H]3O)[C@@H](O)[C@H]2O)C=CC1
Description: purified protein. The data set is classed as biochemical, Microcystis aeruginosa. The settings on record: oxaloacetate reduction, 100 mM Tris-HCl pH 8.0, 25 °C, apparent, varied: cofactor.

Substrate in data set [2]: NC(=O)C1=CN([C@@H]2O[C@H](COP(=O)(O)OP(=O)(O)OC[C@H]3O[C@@H](n4cnc5c(N)ncnc54)[C@H](OP(=O)(O)O)[C@@H]3O)[C@@H](O)[C@H]2O)C=CC1
Description: purified protein. Particulars: oxaloacetate reduction, 100 mM Tris-HCl pH 8.0, 25 °C, apparent, varied: cofactor. The data set is classed as biochemical, Microcystis aeruginosa.

B1: MaMDH (Ma7806MDH) (Microcystis aeruginosa PCC 7806SL) (protein)
chain: MVDFYDTLIPCQSPRVSVIGAGNVGRTLAQRIAEKNLADVVLLDIVHGLPQGIALDLMEAQGIELHDSEIIGTNNYEDTAGSDIVVITAGLARKPGMSRDDLMNVNAKIVVEAATKCLKYSPEAIFIVITNPLDVMTYLVWQATGLPPQRVMGMAGVLDSSRLQTFIAMELGVSTADVHAMVLGGHGDLMLPLPRYCTVSGVPITELMDEITINRLVERTRNGGAEIVKLLQTGGAYYAPASSACTMVETILRNQSRLLPAAAYLKGEYGLQDVYLGVPCRLGCRGVESILEVRLTDAERLDLHTSAASVRQNVHLALDSLKVLM
In the case of B1, in “purified protein [1]”, the Km was determined as 33.140 ± 0.95 µM, the kcat stood at 31.7 ± 1.43 s⁻¹ and the kcat/Km was determined as 956000 M⁻¹ s⁻¹. Further, in the data set “purified protein [2]”, the Km worked out at 113.200 ± 3.46 µM, the kcat was 8.71 ± 1.45 s⁻¹ and the kcat/Km is 77000 M⁻¹ s⁻¹.

The term Km denotes the concentration of substrate that gives half-maximal velocity. By kcat is commonly meant the number of substrate molecules converted per active site and unit of time at saturation. Broadly, the kcat/Km is the turnover number divided by the Michaelis constant.

The values are drawn from PMC12609799, “Novel Dual-Coenzyme Specificity and Thermostability of Malate Dehydrogenase Identified in the Cyanobacterium Microcystis aeruginosa PCC7806” (International Journal of Molecular Sciences, 2025).
